Patent EP4386000A1 (Nanjing Novoacine Bio-Technology Co., Ltd., dated 2024)
Where a chain is given by its changes, count along the chain named.

T1: CD25 on CD4+CD25+ Treg cells isolated from human PBMCs (human, UniProt P01589 22-272)
T1 sequence (looked up): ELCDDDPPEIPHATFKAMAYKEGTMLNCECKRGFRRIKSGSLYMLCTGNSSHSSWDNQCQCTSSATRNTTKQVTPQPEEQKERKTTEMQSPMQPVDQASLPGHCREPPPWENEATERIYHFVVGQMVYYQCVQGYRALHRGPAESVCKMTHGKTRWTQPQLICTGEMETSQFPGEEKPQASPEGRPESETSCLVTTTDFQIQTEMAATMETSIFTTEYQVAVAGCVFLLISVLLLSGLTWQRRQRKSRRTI

T2: human CD25 (NP_000408.1) (Met 1-Cys 213) C-terminally fused with 6-histidine tag (human, UniProt P01589 22-213)
T2 construct: range 1-213; Expressed in CHO-K1 cells; also called human CD25-his
T2 sequence: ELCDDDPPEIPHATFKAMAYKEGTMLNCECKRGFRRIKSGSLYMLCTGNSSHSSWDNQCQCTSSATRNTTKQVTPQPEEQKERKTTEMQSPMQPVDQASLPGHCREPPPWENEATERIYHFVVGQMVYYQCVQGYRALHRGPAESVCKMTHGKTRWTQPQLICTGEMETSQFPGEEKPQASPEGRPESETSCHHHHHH

T3: Mouse CD25-his (UniProtKB-P01590, Met1-Lys213) (mouse, UniProt P01590 22-213)
T3 construct: range 1-213; Range begins at Met1 (includes the signal peptide); not shown: his tag
T3 sequence (looked up): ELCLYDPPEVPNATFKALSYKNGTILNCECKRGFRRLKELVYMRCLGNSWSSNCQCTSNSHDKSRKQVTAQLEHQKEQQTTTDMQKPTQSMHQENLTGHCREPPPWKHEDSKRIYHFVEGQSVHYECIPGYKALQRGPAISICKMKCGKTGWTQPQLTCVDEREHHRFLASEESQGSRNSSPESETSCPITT

T4: human CD25 on CHO-K1/hCD25 cells (human, UniProt P01589 22-272)
T4 construct: whole, on cells; The construct of the cell line is not described
T4 sequence (looked up): T1 sequence (looked up)

B1: chimeric antibody 2046-111H2L1 (antibody, human IgG1, kappa, V domains shown)
VH: DVQLQESGPGLVKPSQSLSLTCTVTGHSITSDYAWNWIRQFPGNKLEWMGYISYSGSTIYNPSLKSRISITRDTSKNQFFLQLNSVTTEDTATYYCARWLLQNYYAMDYWGQGTSVTVSS
VL: DVVMTQTPLSLPVSLGDQASISCRSSQSLVHSNGNTYLHWYLRKPGQSPKLLIYKVSNRFSGVPDRFSGSGSGTDFTLKISRVEAEDLGVYFCSQSTHVPLTFGAGTKLELKR
notes: Chimeric, human IgG1/kappa
B2: chimeric antibody 2046-2H1L1 (antibody, human IgG1, kappa, V domains shown)
VH: B1 VH with H27Y, Q40H, S53T, I59V, Q78H, N103I
VL: B1 VL with R43Q
notes: Chimeric (murine V, human IgG1/kappa); also called 2046-2ix
B3: chimeric antibody 2046-61H1L2 (antibody, human IgG1, kappa)
heavy: not shown
light: DVVMTQTPLSLPVSLGDQASISCRSSQSLVHSNGNTYLHWNLQKPGQSPKLLIYKVSNRFSGVPDRFSGSGSGTDFTLKISRVEAEDLGVYFCSQSTHVPLTFSAGTKLELKRTVAAPSVFIFPPSDEQLKSGTASVVCLLNNFYPREAKVQWKVDNALQSGNSQESVTEQDSKDSTYSLSSTLTLSKADYEKHKVYACEVTHQGLSSPVTKSFNRGEC
notes: Chimeric, human IgG1/kappa; also called 2046-61ix
B4: chimeric antibody 2046-24H2L1 (antibody, human IgG1, kappa, V domains shown)
VH: B1 VH with H27Y, S55G, S57T
VL: B1 VL with R43Q, L51V, S96N
notes: Chimeric, human IgG1/kappa; also called 2046-24ix
B5: chimeric antibody 2046-18H1L1 (antibody, human IgG1, kappa, V domains shown)
VH: B1 VH with H27Y, S57I, N103I
VL: B1 VL with R24S, R43H
notes: Chimeric, human IgG1/kappa; also called 2046-18ix
B6: chimeric antibody 2046-36H2L1 (antibody, human IgG1, kappa, V domains shown)
VH: QIQLVQSGPELKKPGETVRISCKASGYTFTTAGMQWVQKMPGKGLKWIGWINTHSGVPKYAEDFKGRFAFSLETSASTAYLQISNLKNEDTATYFCASDYAFGYWGQGTLVTVSA
VL: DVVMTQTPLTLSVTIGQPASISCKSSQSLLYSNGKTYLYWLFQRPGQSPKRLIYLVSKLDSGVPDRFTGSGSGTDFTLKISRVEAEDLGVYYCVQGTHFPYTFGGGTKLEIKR
notes: Chimeric, human IgG1/kappa; also called 2046-36ix
B7: chimeric antibody 2047-10H1L2 (antibody, human IgG1, kappa, V domains shown)
VH: QVQLQQSGPELVRPGVSVKISCKGSGYTFTDYAMHWVKQSHAKSLEWIGVISTYNGNTNYNQKFKGKATMTVDKSSSTAYMELARLTSEDSAIYYCARSYGNYPFDYWGQGTTLTVSS
VL: DIKMTQSPSSMYASLGERVTITCKASQDINSYLSWFQQKPGKSPKTLIYRANRLVDGVPSRFSGSGSGQDYSLTISSLEYEDMGIYYCLQYDEFPYTFGGGTKLEIKR
notes: Chimeric, human IgG1/kappa; also called 2047-10ix
B8: chimeric antibody 2047-3H8L2 (antibody, human IgG1, kappa, V domains shown)
VH: QVQLKQSGAELVKPGASVKMSCKTSGYTFTDYVISWVKQRTGQGLEWIGEIYPGSGSTYYNEKFKGKATLTADISSNTAYMQLSSLTSEDSAVYFCASINFDYWGHGTTLTVSS
VL: DIVMTQSPATLSVTPGDRVSLSCRASQSISDYLHWYQQKSHESPRLLIKYASQSISGIPSRFSGSGSGSDFTLSINSVEPEDVGVYYCQNGHSFPYTFGGGTKLEIKR
notes: Chimeric, human IgG1/kappa; also called 2047-3ix
B9: humanized antibody 2046-111H1L1-m2 (antibody, human IgG1, kappa, V domains shown)
VH: EVQLQESGPGLVKPSQTLSLTCTVSGHSITSDYAWNWIRQPPGKGLEWIGYISYSGSTIYNPSLKSRVTISRDTSKNQFSLKLSSVTAADTAVYYCARWLLQNYYAMDYWGQGTLVTVSS
VL: EIVLTQSPGTLSLSPGERATLSCRSSQSLVHSNGNTYLHWYQQKPGQAPRLLIYKVSNRFSGIPDRFSGSGSGTDFTLTISRLEPEDFAVYYCSQSTHVPLTFGQGTKLEIKR
B10: humanized antibody 2047-10H2L2 (antibody, human IgG1, kappa, V domains shown)
VH: EVQLVQSGAEVKKPGATVKISCKGSGYTFTDYAMHWVQQAPGKGLEWMGVISTYSGNTNYNQKFKGRVTITVDKSTSTAYMELSSLRSEDTAVYYCARSYGNYPFDYWGQGTLVTVSS
VL: DIQMTQSPSSLSASVGDRVTITCKASQDITSYLSWFQQKPGKAPKTLIYRANRLVDGVPSRFSGSGSGQDYTLTISSLQPEDMATYYCLQYDEFPYTFGQGTKLEIKR
B11: humanized antibody 2047-3H1L2 (antibody, human IgG1, kappa, V domains shown)
VH: EVQLVQSGAEVKKPGATVKISCKTSGYTFTDYVISWVQQAPGKGLEWMGEIYPGSGSTYYNEKFKGRVTITADISTNTAYMELSSLRSEDTAVYYCASINFDYWGQGTLVTVSS
VL: EIVMTQSPATLSLSPGERATLSCRASQSISDYLHWYQQKPGQAPRLLIKYASQSISGIPARFSGSGSGSDFTLTISSLQPEDVAVYYCQSGHSFPYTFGQGTKLEIKR
B12: humanized antibody 2046-36H1L1 (antibody, human IgG1, kappa, V domains shown)
VH: EIQLVQSGSELKKPGASVKVSCKASGYTFTTAGMQWVRQAPGQGLEWMGWINTHSGVPKYAEDFKGRFVFSLDTSVSTAYLQISSLKAEDTAVYYCASDYAFGYWGQGTLVTVSS
VL: DVVMTQSPLSLPVTLGQPASISCKSSQSLLYSNGKTYLYWLQQRPGQSPRRLIYLVSKLDSGVPDRFSGSGSGTDFTLKISRVEAEDLGVYYCVQGTHFPYTFGQGTKLEIKR

target: T1, CD25 on CD4+CD25+ Treg cells isolated …; assay: cell-based or functional assay

Binder	EC50, killing Tregs in vitro (ADCC reporter, jurkat/CD16a/NFAT-luc) [µg/mL]	Relative activity (%) compared with 686, killing Tregs in vitro [%]
B1	89.8	145
B2	22.2	584
B3	34.1	380
B4	26.5	491
B5	31.7	410
B6	52.4	248
B7	41.4	314
B8	857	15.2

target: T5, cyno CD25-his (NCBI-H6WS54, Met1-Arg213) (cyno); assay: ELISA, cyno CD25-his coated
T5 construct: range 1-213; Range begins at Met1 (includes the signal peptide)

EC50 [µg/mL]	Binder
0.0447	B1
0.0594	B2
0.0601	B3
0.0424	B4
0.0483	B5
0.0549	B6
2.6	B7
0.189	B8

target: T2, human CD25 (NP_000408.1) (Met 1-Cys …); assay: ELISA, human CD25-his coated

EC50 [µg/mL]	Relative activity (%) compared with 686 [%]	Binder
0.0989	105	B1
0.105	99	B2
0.144	72.2	B3
0.106	98.2	B4
0.102	102	B5
0.103	101	B6
0.186	56	B7
0.111	93.6	B8

target: T3, Mouse CD25-his (UniProtKB-P01590, …); assay: ELISA, mouse CD25-his coated

Binder	binding result
B1	no binding (tested: starting at 100 ng/mL)
B2	no binding (tested: starting at 100 ng/mL)
B3	no binding (tested: starting at 100 ng/mL)
B4	no binding (tested: starting at 100 ng/mL)
B5	no binding (tested: starting at 100 ng/mL)
B6	no binding (tested: starting at 100 ng/mL)
B7	no binding (tested: starting at 100 ng/mL)
B8	no binding (tested: starting at 100 ng/mL)

target: T4, human CD25 on CHO-K1/hCD25 cells; assay: flow cytometry on CHO-K1/hCD25 cells

EC50 [µg/mL]	Relative activity (%) compared with 686 [%]	Binder
0.00109	132	B1
0.00192	63.8	B2
0.00114	107	B3
0.00143	131	B4
0.00171	110	B5
0.00167	73.3	B6
0.00246	120	B7
0.00143	205	B8

target: T2, human CD25 (NP_000408.1) (Met 1-Cys …); assay: SPR (BIAcore X100), human CD25-his captured by anti-histidine antibody, antibody as analyte, 1:1 model

Kd [nM]	koff [s⁻¹]	kon [M⁻¹ s⁻¹]	Binder
0.819	0.000431	526000	B1
4.27	0.00318	745000	B2
9.44	0.0121	1.28e+06	B3
7.63	0.00349	458000	B4
0.703	0.000326	463000	B5
2.45	0.00933	3.8e+06	B6
15.5	0.0122	788000	B7
0.308	7.26e-05	236000	B8

target: T2, human CD25 (NP_000408.1) (Met 1-Cys …); assay: as above; remark: another data set of the same source

Kd [nM]	koff [s⁻¹]	kon [M⁻¹ s⁻¹]	Binder
6.35	0.00414	652000	B9
4.46	0.00205	461000	B10
1.43	0.000498	348000	B11
0.994	0.00394	3.96e+06	B12
